Test results published in US6869778 (Scripps Research, dated 2005).
Changes are numbered by the printed parent chain. Names and notes keep the numbering of the source.

B1: t-PA/R275E, single-chain form (enzyme)
chain: SYQVICRDEKTQMIYQQHQSWLRPVLRSNRVEYCWCNSGRAQCHSVPVKSCSEPRCFNGGTCQQALYFSDFVCQCPEGFAGKCCEIDTRATCYEDQGISYRGTWSTAESGAECTNWNSSALAQKPYSGRRPDAIRLGLGNHNYCRNPDRDSKPWCYVFKAGKYSSEFCSTPACSEGNSDCYFGNGSAYRGTHSLTESGASCLPWNSMILIGKVYTAQNPSAQALGLGKHNYCRNPDGDAKPWCHVLKNRRLTWEYCDVPSCSTCGLRQYSQPQFEIKGGLFADIASHPWQAAIFAKHRRSPGERFLCGGILISSCWILSAAHCFQERFPPHHLTVILGRTYRVVPGEEEQKFEVEKYIVHKEFDDDTYDNDIALLQLKSDSSRCAQESSVVRTVCLPPADLQLPDWTECELSGYGKHEALSPFYSERLKEAHVRLYPSSRCTSQHLLNRTVTDNMLCAGDTRSGGPQANLHDACQGDSGGPLVCLNDGRMTLVGIISWGLGCGQKDVPGVYTKVTNYLDWIRDNMRP
notes: Noncleavable single-chain enzyme, secreted from COS-1 cells only as a single chain
B2: t-PA/R275E,H417E, single-chain form (enzyme)
chain: B1 chain with H417E
B3: t-PA/R275E,H417D, single-chain form (enzyme)
chain: B1 chain with H417D

Target: plasminogen activator inhibitor, type 1 (PAI-1) (UniProt P05121 24-402)
Sequence (P05121 24-402 limits assumed): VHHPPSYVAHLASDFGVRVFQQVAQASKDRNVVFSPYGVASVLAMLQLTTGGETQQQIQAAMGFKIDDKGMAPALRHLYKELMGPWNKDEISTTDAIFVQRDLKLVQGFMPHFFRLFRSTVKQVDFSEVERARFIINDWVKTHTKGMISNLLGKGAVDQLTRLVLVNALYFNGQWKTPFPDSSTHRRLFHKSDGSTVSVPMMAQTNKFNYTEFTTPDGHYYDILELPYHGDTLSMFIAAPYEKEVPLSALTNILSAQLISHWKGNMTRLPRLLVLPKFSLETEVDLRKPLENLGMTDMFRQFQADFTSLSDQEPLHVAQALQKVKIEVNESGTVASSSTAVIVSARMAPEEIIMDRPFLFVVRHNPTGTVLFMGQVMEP
Test: enzyme preincubated with PAI-1 under pseudo-first order conditions at 23 degrees Celsius; residual activity read in indirect chromogenic assay
Description: Second order rate constants for the inhibition of wild type human t-PA and variant t-PA were measured under pseudo-first order conditions as previously described. Briefly, enzyme and inhibitor were preincubated at 23 degrees Celsius for periods of time varying from 0–30 minutes. Following preincubation, the mixtures were diluted, and the residual enzymatic activity was measured in a standard indirect chromogenic assay. For each enzyme, the concentrations of enzyme and inhibitor and the times of preincubation were chosen to yield several data points for which the residual enzymatic activity varied between 20% and 80% of the initial activity. Data were analyzed by plotting the natural logarithm of the ratio (residual activity/initial activity) versus time of preincubation and measuring the resulting slopes. Division of this slope by –[I] yielded the second order rate constants shown.

| Second Order Rate Constant for inhibition by PAI-1 [M⁻¹ s⁻¹] | Binder |
| --- | --- |
| 1.8e+06 | B1 |
| 210000 | B2 |
| 150000 | B3 |
